# Patent US20260250418A1 (BIOCYTOGEN PHARMACEUTICALS BEIJING, published 2026)
# T1: monkey (Macaca fascicularis) HER3 on CHO-fasHER3 cells (monkey (Macaca fascicularis), UniProt P21860 20-643 (human entry))
# T1 construct: CHO-S cells transfected with fasHER3
# T1 chain: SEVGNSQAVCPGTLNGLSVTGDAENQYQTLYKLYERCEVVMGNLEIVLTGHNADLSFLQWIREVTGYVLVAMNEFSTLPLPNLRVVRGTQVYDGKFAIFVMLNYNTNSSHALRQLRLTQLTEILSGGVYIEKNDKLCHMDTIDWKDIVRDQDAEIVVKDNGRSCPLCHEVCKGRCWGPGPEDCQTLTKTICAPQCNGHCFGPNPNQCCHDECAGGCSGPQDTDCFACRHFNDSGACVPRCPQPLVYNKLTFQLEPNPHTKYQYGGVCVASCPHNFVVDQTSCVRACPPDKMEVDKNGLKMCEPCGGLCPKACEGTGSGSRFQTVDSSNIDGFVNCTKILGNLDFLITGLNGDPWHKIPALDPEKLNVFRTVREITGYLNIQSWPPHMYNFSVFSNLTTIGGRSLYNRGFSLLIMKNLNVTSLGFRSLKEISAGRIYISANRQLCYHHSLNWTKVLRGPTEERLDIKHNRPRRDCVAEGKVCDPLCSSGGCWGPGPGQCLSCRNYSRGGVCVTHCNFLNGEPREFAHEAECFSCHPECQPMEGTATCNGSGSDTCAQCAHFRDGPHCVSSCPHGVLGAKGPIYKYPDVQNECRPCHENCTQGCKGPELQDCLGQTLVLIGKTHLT
# Key:
# [1] = target: T2, His-tagged monkey HER3 protein (fasHER3, Sino Biological, Inc., Cat #: 90043-K08H) (monkey); assay: SPR, Ab captured on Protein A, antigen 400 nM
# T2 construct: Bought protein
# Method: (§1) Purified antibodies were captured on the Protein A chip (Series S Sensor Chip Protein A) for the detection. 2 μg/mL antibodies were loaded at 10 μL/min to bind to hHER3, fasHER3, hMET or fasMET (400 and 0 nM). The flow rate was 30 μL/min, the binding and dissociation time were set to 180 s and 400 s, respectively. The chip was regenerated after the last injection of each titration with a glycine solution ([…]) at 30 μL/min for 30 seconds.
# [2] = target: T3, His-tagged human HER3 protein (hHER3, ACRO Biosystems Inc., Cat #: ER3-H5223) (human, UniProt P21860 20-643); assay: SPR, Ab captured on Protein A, antigen 400 nM
# T3 construct: Bought protein; also called hHER3-His; not shown: His tag
# Method: as §1
# [3] = target: T4, His-tagged human MET (hMET, Sino Biological, Inc., Cat #: 10692-H08H) (human, UniProt P08581 25-932); assay: SPR, Ab captured on Protein A, antigen 400 nM
# T4 construct: Bought protein; not shown: His tag
# Method: as §1
# [4] = target: T5, human MET on NIH3T3-hMET cells (human, UniProt P08581 25-1390); assay: flow cytometry, transfected NIH3T3 cells
# T5 construct: NIH3T3 cells transfected with a plasmid expressing hMET
# Method: (§2) Specifically, CHO-hHER3 cells, CHO-fasHER3 cells, NIH3T3-hMET cells or NIH3T3-fasMET cells were transferred to a 96-well plate at a density of 5×10⁴ cells/well respectively. The antibodies were added to the 96-well plate, and incubated at 4° C. for 30 min.
# [5] = target: T6, monkey MET on NIH3T3-fasMET cells (monkey, UniProt A0M8R7 25-1381); assay: flow cytometry, transfected NIH3T3 cells
# T6 construct: NIH3T3 cells transfected with a plasmid expressing fasMET
# Method: as §2
# [6] = target: T7, human HER3 on CHO-hHER3 cells (human, UniProt P21860 20-643); assay: flow cytometry, transfected CHO cells
# T7 construct: CHO-S cells transfected with hHER3
# Method: as §2
# [7] = target: T1, monkey (Macaca fascicularis) HER3 on …; assay: flow cytometry, transfected CHO cells
# Method: as §2
# T5 sequence (P08581 25-1390 limits assumed): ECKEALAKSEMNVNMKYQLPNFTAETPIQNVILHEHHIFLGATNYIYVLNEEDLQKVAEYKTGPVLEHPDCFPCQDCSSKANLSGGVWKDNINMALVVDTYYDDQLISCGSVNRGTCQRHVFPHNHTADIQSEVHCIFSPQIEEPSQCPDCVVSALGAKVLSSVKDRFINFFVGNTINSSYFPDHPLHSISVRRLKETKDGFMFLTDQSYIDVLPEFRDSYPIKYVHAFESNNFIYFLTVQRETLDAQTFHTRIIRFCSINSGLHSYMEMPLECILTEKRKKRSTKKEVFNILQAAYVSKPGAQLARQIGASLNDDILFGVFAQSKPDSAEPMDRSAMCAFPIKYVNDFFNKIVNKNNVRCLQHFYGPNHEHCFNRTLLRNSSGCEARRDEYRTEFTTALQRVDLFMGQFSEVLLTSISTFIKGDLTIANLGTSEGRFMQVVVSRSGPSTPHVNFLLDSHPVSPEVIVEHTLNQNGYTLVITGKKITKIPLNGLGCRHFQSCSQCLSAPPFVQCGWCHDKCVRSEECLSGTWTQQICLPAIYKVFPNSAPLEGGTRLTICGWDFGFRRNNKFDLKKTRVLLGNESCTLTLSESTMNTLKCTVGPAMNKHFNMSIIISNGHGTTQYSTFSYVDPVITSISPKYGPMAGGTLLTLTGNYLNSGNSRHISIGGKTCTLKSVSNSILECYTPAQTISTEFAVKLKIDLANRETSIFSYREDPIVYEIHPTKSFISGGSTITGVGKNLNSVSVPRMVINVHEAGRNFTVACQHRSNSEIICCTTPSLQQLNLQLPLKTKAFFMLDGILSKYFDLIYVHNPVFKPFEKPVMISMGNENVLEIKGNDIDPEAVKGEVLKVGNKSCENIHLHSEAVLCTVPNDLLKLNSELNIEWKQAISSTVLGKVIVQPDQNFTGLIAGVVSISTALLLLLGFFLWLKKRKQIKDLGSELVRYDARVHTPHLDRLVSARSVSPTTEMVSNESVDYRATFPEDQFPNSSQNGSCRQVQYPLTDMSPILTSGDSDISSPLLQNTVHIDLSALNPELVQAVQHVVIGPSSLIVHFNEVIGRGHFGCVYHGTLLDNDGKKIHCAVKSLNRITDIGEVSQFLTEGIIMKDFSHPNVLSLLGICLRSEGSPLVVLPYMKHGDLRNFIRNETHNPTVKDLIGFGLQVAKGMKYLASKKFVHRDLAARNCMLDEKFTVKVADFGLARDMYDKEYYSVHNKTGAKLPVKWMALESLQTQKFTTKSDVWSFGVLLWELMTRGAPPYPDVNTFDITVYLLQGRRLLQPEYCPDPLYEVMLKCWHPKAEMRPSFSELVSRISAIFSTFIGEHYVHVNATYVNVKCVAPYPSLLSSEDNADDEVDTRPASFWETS
# T6 sequence (A0M8R7 25-1381 S170N/I621T limits assumed): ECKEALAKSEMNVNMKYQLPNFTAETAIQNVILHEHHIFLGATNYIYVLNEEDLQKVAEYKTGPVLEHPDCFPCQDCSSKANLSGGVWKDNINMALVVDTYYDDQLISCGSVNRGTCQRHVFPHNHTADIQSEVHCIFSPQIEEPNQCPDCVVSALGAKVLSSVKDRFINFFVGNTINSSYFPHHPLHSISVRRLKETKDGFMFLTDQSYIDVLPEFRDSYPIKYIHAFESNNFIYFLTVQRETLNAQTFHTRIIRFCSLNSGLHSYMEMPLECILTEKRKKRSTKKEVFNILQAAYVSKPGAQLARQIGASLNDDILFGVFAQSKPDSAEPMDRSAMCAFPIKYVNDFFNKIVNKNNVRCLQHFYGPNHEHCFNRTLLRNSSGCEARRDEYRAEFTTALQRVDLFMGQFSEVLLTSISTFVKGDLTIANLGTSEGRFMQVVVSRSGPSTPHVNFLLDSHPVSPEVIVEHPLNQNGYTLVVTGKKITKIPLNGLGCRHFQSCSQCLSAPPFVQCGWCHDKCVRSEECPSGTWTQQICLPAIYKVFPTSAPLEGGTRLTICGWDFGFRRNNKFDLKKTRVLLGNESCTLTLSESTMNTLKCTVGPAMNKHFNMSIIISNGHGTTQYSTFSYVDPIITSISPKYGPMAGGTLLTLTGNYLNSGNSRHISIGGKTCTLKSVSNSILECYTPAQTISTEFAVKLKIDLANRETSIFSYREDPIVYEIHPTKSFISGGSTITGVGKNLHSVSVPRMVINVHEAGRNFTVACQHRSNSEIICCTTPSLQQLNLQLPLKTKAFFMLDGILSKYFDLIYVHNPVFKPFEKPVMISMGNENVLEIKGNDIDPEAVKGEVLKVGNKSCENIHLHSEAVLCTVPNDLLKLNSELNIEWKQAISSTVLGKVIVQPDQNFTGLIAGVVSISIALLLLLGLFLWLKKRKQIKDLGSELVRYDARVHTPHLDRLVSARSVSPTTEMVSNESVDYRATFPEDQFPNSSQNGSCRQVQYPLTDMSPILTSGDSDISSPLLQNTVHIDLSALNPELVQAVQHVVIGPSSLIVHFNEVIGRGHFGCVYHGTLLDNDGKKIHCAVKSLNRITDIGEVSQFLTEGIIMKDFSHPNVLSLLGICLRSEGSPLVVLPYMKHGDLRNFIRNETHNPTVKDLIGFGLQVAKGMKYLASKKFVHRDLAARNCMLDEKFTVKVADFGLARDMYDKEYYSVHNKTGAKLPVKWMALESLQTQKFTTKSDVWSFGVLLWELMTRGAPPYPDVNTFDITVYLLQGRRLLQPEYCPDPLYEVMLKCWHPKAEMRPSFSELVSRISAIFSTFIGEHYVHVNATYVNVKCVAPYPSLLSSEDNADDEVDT
# T4 sequence (P08581 25-932 limits assumed): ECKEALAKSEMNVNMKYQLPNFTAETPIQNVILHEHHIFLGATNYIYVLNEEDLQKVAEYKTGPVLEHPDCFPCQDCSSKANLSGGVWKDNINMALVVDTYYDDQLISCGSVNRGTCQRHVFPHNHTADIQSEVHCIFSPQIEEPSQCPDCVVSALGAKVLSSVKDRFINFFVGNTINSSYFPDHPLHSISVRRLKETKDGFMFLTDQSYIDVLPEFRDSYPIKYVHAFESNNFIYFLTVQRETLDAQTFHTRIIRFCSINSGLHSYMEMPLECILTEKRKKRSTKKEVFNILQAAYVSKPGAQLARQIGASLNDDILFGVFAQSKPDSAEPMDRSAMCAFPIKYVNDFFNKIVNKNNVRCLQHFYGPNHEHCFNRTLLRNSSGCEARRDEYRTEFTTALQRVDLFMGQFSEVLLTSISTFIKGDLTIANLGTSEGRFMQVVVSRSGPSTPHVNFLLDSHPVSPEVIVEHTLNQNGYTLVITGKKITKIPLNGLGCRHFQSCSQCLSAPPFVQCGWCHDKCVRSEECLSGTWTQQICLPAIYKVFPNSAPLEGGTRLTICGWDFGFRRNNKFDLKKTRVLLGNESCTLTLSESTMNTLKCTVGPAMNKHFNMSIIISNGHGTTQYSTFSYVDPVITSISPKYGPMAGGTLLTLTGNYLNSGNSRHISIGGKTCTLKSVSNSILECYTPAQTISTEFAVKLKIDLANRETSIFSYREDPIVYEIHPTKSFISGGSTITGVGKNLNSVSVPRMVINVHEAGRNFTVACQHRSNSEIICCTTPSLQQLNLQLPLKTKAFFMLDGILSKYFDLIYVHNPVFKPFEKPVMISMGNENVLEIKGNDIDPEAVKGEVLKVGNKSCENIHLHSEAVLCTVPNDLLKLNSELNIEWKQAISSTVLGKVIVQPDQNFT
Kd [1],koff [1],kon [1],Kd [2],koff [2],kon [2],Kd [3],koff [3],kon [3],Positive Cells [4],Positive Cells [5],Positive Cells [6],Positive Cells [7],Binder
92.5 nM,0.000844 s⁻¹,9120 M⁻¹ s⁻¹,32.7 nM,0.000777 s⁻¹,23700 M⁻¹ s⁻¹,18 nM,0.00122 s⁻¹,68000 M⁻¹ s⁻¹,99.6%,55.1%,56.9%,55.1%,"anti-HER3/MET bispecific antibody 1C5-8E2 (bispecific antibody, V domains shown) VH 1: QVQLVESGGGVVQPGKSLRLSCAASGFTFSRSGMHWVRQAPGKGLEWVALISFDGSNKYYADSVKGRFTISRDNSKNTLNLQMNSLRAEDTAVYYCAKGGFGVVIYDAFDIWGHGTMVTVSS VH 2: QVQLVQSGPALVKPTQTLTLTCTFSGFSLYTSGVAVAWIRQPPGKALEWLALIYWDDDKWYTPSLKTRLSITKDTSKNQVVLTMTNMDPVDTATYYCAHRGSFNWNYGYFDYWGQGTLVTVSS VL: not shown"
90.2 nM,0.0103 s⁻¹,114000 M⁻¹ s⁻¹,47.4 nM,0.0106 s⁻¹,224000 M⁻¹ s⁻¹,50.7 nM,0.00256 s⁻¹,50500 M⁻¹ s⁻¹,99.8%,72.9%,47.3%,56%,"anti-HER3/MET bispecific antibody 3G6-2F11 (bispecific antibody, V domains shown) VH 1: QVQLVQSGPVLVKPTETLTLTCTVSGFSLSNIRMGVSWIRQPPGKALEWLAHIFSNDDKSYSTSLKSRLTISKDTSKSQVVLTMTNVDPVDTATYYCTRMRYSGGPFDYWGQGTLVTVSS VH 2: EVQLVESGPGLVKPSETLSLTCTVSGGSISSNYWSWIRQPPGKGLEWIGYIYHSGSTNYNPSLKSRVTISVDTSKNQFSLKLSSVTAADTAVYFCARGPVSIFGVVKYIDLWGRGTLVTVSS VL: not shown"
33.1 nM,0.00322 s⁻¹,97300 M⁻¹ s⁻¹,15 nM,0.00341 s⁻¹,227000 M⁻¹ s⁻¹,21.8 nM,0.00051 s⁻¹,23400 M⁻¹ s⁻¹,99.9%,70.2%,59%,58.6%,"anti-HER3/MET bispecific antibody 3E1-8D9 (bispecific antibody, V domains shown) VH 1: EVQLVQSGPVLAKPTETLTLTCTVSGFSLSNIRMGVSWIRQPPGKALEWLAHIFSNDDKSYSPSLKNRLTISKDTSKSQVVLTMTTMDPMDTATYYCTRMKYSGGPFDYWGQGTLVTVSS VH 2: QVQLQESGPGLVKPSETLSLTCTVSGGSISGHYWSWIRQSPGKGLEWIGYITYSGSTNYNPSLKSRVTISVDTSKNQFSLKLSSVTAADTAVYYCGTIAVAGRVYYYGVDVWGRGTTVTVSS VL: not shown"
67.2 nM,–,–,38.9 nM,0.0101 s⁻¹,–,14.8 nM,0.00113 s⁻¹,–,99.6%,51.6%,55.2%,58.4%,"anti-HER3/MET bispecific antibody 3G6-8E2 (bispecific antibody, V domains shown) VH 1: QVQLVQSGPVLVKPTETLTLTCTVSGFSLSNIRMGVSWIRQPPGKALEWLAHIFSNDDKSYSTSLKSRLTISKDTSKSQVVLTMTNVDPVDTATYYCTRMRYSGGPFDYWGQGTLVTVSS VH 2: QVQLVQSGPALVKPTQTLTLTCTFSGFSLYTSGVAVAWIRQPPGKALEWLALIYWDDDKWYTPSLKTRLSITKDTSKNQVVLTMTNMDPVDTATYYCAHRGSFNWNYGYFDYWGQGTLVTVSS VL: not shown"
38.9 nM,0.00261 s⁻¹,67100 M⁻¹ s⁻¹,16.7 nM,0.00262 s⁻¹,157000 M⁻¹ s⁻¹,35.7 nM,0.000973 s⁻¹,27200 M⁻¹ s⁻¹,99.8%,64.9%,54%,55.5%,"anti-HER3/MET bispecific antibody 1B2-8D9 (bispecific antibody, V domains shown) VH 1: QVQLVQSGPVLVKPTETLTLTCTVSTFSLSNARMGVSWIRQPPGKALEWLAHIFSNDDKSYSPSLKSRLTISKDTSKTQVVLTMTNMDPVDTATYYCSRMRYSGGPFDYWGQGSLVTVSS VH 2: QVQLQESGPGLVKPSETLSLTCTVSGGSISGHYWSWIRQSPGKGLEWIGYITYSGSTNYNPSLKSRVTISVDTSKNQFSLKLSSVTAADTAVYYCGTIAVAGRVYYYGVDVWGRGTTVTVSS VL: not shown"
33.7 nM,0.00325 s⁻¹,96400 M⁻¹ s⁻¹,14.8 nM,0.00342 s⁻¹,231000 M⁻¹ s⁻¹,43.1 nM,0.00285 s⁻¹,66100 M⁻¹ s⁻¹,99.8%,87.3%,56.4%,50.3%,"anti-HER3/MET bispecific antibody 3E1-2F11 (bispecific antibody, V domains shown) VH 1: EVQLVQSGPVLAKPTETLTLTCTVSGFSLSNIRMGVSWIRQPPGKALEWLAHIFSNDDKSYSPSLKNRLTISKDTSKSQVVLTMTTMDPMDTATYYCTRMKYSGGPFDYWGQGTLVTVSS VH 2: EVQLVESGPGLVKPSETLSLTCTVSGGSISSNYWSWIRQPPGKGLEWIGYIYHSGSTNYNPSLKSRVTISVDTSKNQFSLKLSSVTAADTAVYFCARGPVSIFGVVKYIDLWGRGTLVTVSS VL: not shown"
38.9 nM,0.00255 s⁻¹,65600 M⁻¹ s⁻¹,16.1 nM,0.00253 s⁻¹,157000 M⁻¹ s⁻¹,40.4 nM,0.00255 s⁻¹,63200 M⁻¹ s⁻¹,99.8%,66.4%,51.4%,56.3%,"anti-HER3/MET bispecific antibody 1B2-2F11 (bispecific antibody, V domains shown) VH 1: QVQLVQSGPVLVKPTETLTLTCTVSTFSLSNARMGVSWIRQPPGKALEWLAHIFSNDDKSYSPSLKSRLTISKDTSKTQVVLTMTNMDPVDTATYYCSRMRYSGGPFDYWGQGSLVTVSS VH 2: EVQLVESGPGLVKPSETLSLTCTVSGGSISSNYWSWIRQPPGKGLEWIGYIYHSGSTNYNPSLKSRVTISVDTSKNQFSLKLSSVTAADTAVYFCARGPVSIFGVVKYIDLWGRGTLVTVSS VL: not shown"
29 nM,0.00329 s⁻¹,113000 M⁻¹ s⁻¹,13.2 nM,0.0035 s⁻¹,266000 M⁻¹ s⁻¹,16.9 nM,0.0012 s⁻¹,71100 M⁻¹ s⁻¹,99.5%,54.8%,58.4%,63.9%,"anti-HER3/MET bispecific antibody 3E1-8E2 (bispecific antibody, V domains shown) VH 1: EVQLVQSGPVLAKPTETLTLTCTVSGFSLSNIRMGVSWIRQPPGKALEWLAHIFSNDDKSYSPSLKNRLTISKDTSKSQVVLTMTTMDPMDTATYYCTRMKYSGGPFDYWGQGTLVTVSS VH 2: QVQLVQSGPALVKPTQTLTLTCTFSGFSLYTSGVAVAWIRQPPGKALEWLALIYWDDDKWYTPSLKTRLSITKDTSKNQVVLTMTNMDPVDTATYYCAHRGSFNWNYGYFDYWGQGTLVTVSS VL: not shown"
31.5 nM,0.0025 s⁻¹,79300 M⁻¹ s⁻¹,13.8 nM,0.00252 s⁻¹,183000 M⁻¹ s⁻¹,14 nM,0.000998 s⁻¹,71400 M⁻¹ s⁻¹,99.6%,54.3%,56.3%,61.4%,"anti-HER3/MET bispecific antibody 1B2-8E2 (bispecific antibody, V domains shown) VH 1: QVQLVQSGPVLVKPTETLTLTCTVSTFSLSNARMGVSWIRQPPGKALEWLAHIFSNDDKSYSPSLKSRLTISKDTSKTQVVLTMTNMDPVDTATYYCSRMRYSGGPFDYWGQGSLVTVSS VH 2: QVQLVQSGPALVKPTQTLTLTCTFSGFSLYTSGVAVAWIRQPPGKALEWLALIYWDDDKWYTPSLKTRLSITKDTSKNQVVLTMTNMDPVDTATYYCAHRGSFNWNYGYFDYWGQGTLVTVSS VL: not shown"
